Data on one molecule can be found in article PMC9890643.

The series deals with apolipoprotein A-1 (ApoA1) (UniProt P02647 25-267). The experiment in a line: electrochemical aptasensor.
Sequence of apolipoprotein A-1 (ApoA1) (P02647 25-267): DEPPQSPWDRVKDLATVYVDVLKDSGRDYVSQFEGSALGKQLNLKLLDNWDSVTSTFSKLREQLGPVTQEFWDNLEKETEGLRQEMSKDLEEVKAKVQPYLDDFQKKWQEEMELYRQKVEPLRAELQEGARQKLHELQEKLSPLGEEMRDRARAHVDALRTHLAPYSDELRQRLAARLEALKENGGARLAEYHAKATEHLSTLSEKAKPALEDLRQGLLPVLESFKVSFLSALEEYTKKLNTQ

B1: ApoA1 thiolated aptamer (ssDNA)
DNA: CCTCGGCACGTTCTCAGTAGCGCTCGCTGGTCATCCCACA
modifications: 5'-thiol-C6
For B1, the binding result was “binds”.
